Measurements reported in the supplement of paper PMC10567573.

B1: UFD1L (parent)
chain: EAGGRFVAFSGEGQSLRKKGRKP
B2: MMP1 (parent)
chain: YTPDLPRADVDHAIEKAFQLWSNV

Variants of: B1
Experiment: protein stability index of a GFP-peptide fusion (GPS, HEK-293T) (PSI 1-6); higher = more stable
Settings: c terminus: native
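Note: lentivirally expressed fusions sorted by FACS into six bins by GFP to DsRed ratio, PSI derived from sequencing read proportions per bin multiplied by bin number.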

Protein stability index, by site and new letter:
G13: P 2.73; N 1.55; V 2.38; L 2.52; Q 1.16; A 2.22; K 2.03; T 1.23; R 1.35; S 1.9; I 1.28
A8: N 1.41; I 1.11; T 1.77; L 1.5; F 2.8; Q 2.18; H 1.34
L16: Y 2.51; M 1.65; P 1.18; Q 2.72; E 2.53; R 2.64; S 3.42; V 2.98; T 2.18; W 1.03; C 2.79; N 2.61; D 3.34
E1: G 2.5; Y 3.86; T 2.17; D 2.33; L 1.92; C 2.5
F9: I 1.19; V 2.02; Q 2.25; A 3.29; E 4.02; T 2.28; W 2.96; R 3.73; P 3.64; H 1; K 1.75
G11: S 1.54; N 1.82; C 2.52; L 1.85; P 2.21; A 1.26
K18: D 2.01; R 1.48; V 1.39; Q 1.87; I 3.76; C 2.11; F 2.3; T 1.97; E 1.49; H 1.24
Q14: F 2.93; V 2.4; N 2.02; G 2.12; D 1.26; S 2.5; E 1.58; R 2.51; C 3.07; A 1.83
S15: R 2.45; G 2.42; L 2.95; P 2.16; H 2.1; D 1.87; T 1.84; A 2.2; Y 2.91; V 1.72
S10: P 2.83; T 1.77; A 1.38; D 2.36; K 1.4; N 2.98; Q 3.48; I 1.72
R5: A 3.01; F 2.14; L 2.46; P 3.69; T 3.2; Y 1.48; K 2.01; D 4.49; S 3.17; M 1.85; N 2.6; I 1.48; Q 3.3; E 3.18
K19: D 1.74; P 1.07; C 2.4; Q 2.05; G 3.02; R 1.68; T 3.08; E 1.58; A 3.83
G3: C 1.6; W 1.67; E 2.71; L 3.08; P 1.24; D 1.88; M 2.11; S 1.82; N 1.63; T 2.14; Q 2.16
E12: T 3.41; K 1.69
G4: D 2.5; T 1.5; H 2.12; K 2.58; L 1.25; N 1; Q 1.92; S 3.12
A2: I 3; D 3.92; T 1.64; N 1.23; H 1.15; P 2.55; S 1.82; R 1.1; Y 2.35
G20: V 2.53; H 3.25; E 2.78; A 3.91; S 2.12; K 4.63; N 1.82; Q 3.83; D 2.12; M 1.57; P 4.77; L 2.04
R17: M 2.25; G 2.95; N 3.46; K 2.88; D 3; H 2.2; L 2.18; T 2.03; S 2.73; C 1.48
F6: G 2.2; M 1.81; K 2.25; T 4.93; H 1.75; D 4.59; Y 2.38; A 3.06; S 2.41; P 3.15; Q 2.17
V7: I 1.9; N 2.18; E 2.91; G 1.39; A 2.69; D 3.75; S 1.72; C 2.03; T 1.18; L 1.5; F 1.9; Y 1.12; H 1.37

Variants of: B2
Experiment: as above
Settings: c terminus: a fixed tail appended

Protein stability index, by site and new letter:
A17: R 1.63; Y 1.68; V 2.38; T 2.54; L 1.79; N 1.53; S 2.11; W 1.25; M 2; Q 1.82; P 1.43
S22: G 1.81; E 2.75; R 1.72; V 1.44; M 1.69; C 2.02; I 2.04; P 1.85; A 1.78; D 2.59; Q 1.98; F 1.82; W 1.91; K 2.03; L 2.19; N 1.85; T 1.59; Y 1.67; H 1.43
W21: C 3.03; Q 2.88; I 2.67; N 3.36; E 3.74; L 3.56; H 3.42; Y 2.5; P 3.4; A 3.05; G 3.01; K 3.4; S 3.25; D 3.88; R 3.25; V 3.18; T 3.42; F 2.13; M 3.03
Q19: V 2.66; N 2.82; C 3.82; Y 1.87; M 1.68; T 3.63; I 2.33; D 2.5; F 2.43; R 2.15; K 1.86; W 1.96; L 1.05; S 1.7; A 1.54; E 1.98; H 1.97; G 1.75; P 1.52
N23: S 2.28; M 2.02; Q 1.57; I 2.05; G 2.12; F 2.29; V 2.23; K 2.28; Y 1.43; D 1.86; H 1.69; W 1.97; L 2.1; E 2.49; A 2.05; R 2.01; C 1.29; T 2.07
V24: Q 2.14; D 2.02; F 1.83; M 2.29; K 2.5; I 1.79; L 1.65; H 1.71; C 1.87; P 2.43; E 2.16; R 1.53; G 2.37; N 1.94; W 2.39; S 1.66; Y 2.63; T 2.29; A 2.06
L20: E 3.55; A 2.17; Q 1.59; I 2.16; G 1.9; R 1.99; S 2.29; N 2.19; M 1.77; K 2.9; F 2.67; T 2.21; H 2.38; Y 1.78; P 1.88; W 1.1; V 2.76; C 1.84; D 2.96
F18: S 1.67; T 2.13; I 2.41; C 1.69; H 3.17; M 2.04; V 2.04; Q 1.73; A 1.83; G 2.23; W 1.48; K 2.22; D 2.18; L 1.46; Y 2.11; P 1.99; N 1.94; E 2.29; R 1.66
